The record followed here is paper PMC6135047.

The data set addresses His-ToxR (Vibrio parahaemolyticus RIMD 2210633?) (UniProt Q05938). Nature of the data set: DNase I footprinting.
UniProt Q05938, sequence (Q05938 1-176): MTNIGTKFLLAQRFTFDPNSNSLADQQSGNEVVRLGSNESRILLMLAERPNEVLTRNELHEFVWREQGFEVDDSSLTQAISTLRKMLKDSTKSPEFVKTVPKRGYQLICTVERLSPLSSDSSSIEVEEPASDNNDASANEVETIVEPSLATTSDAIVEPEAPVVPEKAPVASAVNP

Consider “CAGAGTGACCCAGAGCCGTTTTGATGCTGTTATTTTTCATCATTCGGCGCGATTAATATGCTAAAGATGGTCGGATTTTTTTCGTTTTAAGACGTTTGAAAACAACAAAGCTCAGCAATGTGCTGAGCTTTGTGTTCGATTGATTTGGCGGTGATGCCCTACTCTGGTG (double strand) [VP1687 footprint probe]”, for which the binding entry is given as “binds”.

As to “CAGATTGCTGAATATCGGTGATGTATGAGAAATCGTTCAATGTAAAAAATATGCGCAATGATTGATGCTGGGAGAATAGAAAGGATGAGGTGGTATTTATAGTGAATATTGGTCGGGAGTTTTTAGAAAACTGAAAACGCCCTAAAAAAACACGTCTGATTTTGACAGCCTGATAAAAACGCACTTCATATAATTCGCTTGTATTGTACGAAAGGAGTGCAAGTGAATGAGTATTATCAAT (double strand) [VP1667 (vopN) footprint probe]”, the binding result was “binds”.

As to “TTTCAGGGACGACTTTGTGATTTAGCCCCATGAAATCACCACACTAAGATGTCATTTAACATGTGGCTGACAAATGTAAATTCAAGGTCAATATTGCTAAAAACGGTGTTTTTTTAGAAAAATTTAATTATCCTACCCCCCTAAAAGCATCTAAAACGTCGCGTATCTCCCATGCGCAAACGTAATTTTGTGATATAAATCACCATAATTACAACATCATCCATCTAAGAAGAACTAA (double strand) [toxR footprint probe]”, the binding entry was “binds”.
